Assay results reported in patent publication US20060058231A1.

Experiments:
Experiment in all cases: ELISA-like plate assay, captured BMP-7 from conditioned media, receptor-Fc detection
[1] = target: ActRIIa receptor-Fc fusion (UniProt P27037)
[2] = target: T1, BMPRII receptor-Fc fusion (UniProt Q13873)
T1 sequence (looked up): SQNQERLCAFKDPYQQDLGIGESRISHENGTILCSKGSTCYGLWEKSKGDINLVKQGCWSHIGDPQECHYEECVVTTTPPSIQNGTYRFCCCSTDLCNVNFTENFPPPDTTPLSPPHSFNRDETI

[3] = target: T2, BMPRIb receptor-Fc fusion (UniProt O00238)
T2 sequence (looked up): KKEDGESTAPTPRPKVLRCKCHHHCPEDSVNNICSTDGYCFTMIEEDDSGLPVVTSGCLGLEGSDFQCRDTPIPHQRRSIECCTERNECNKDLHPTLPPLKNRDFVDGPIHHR

[4] = target: BMPRIa receptor-Fc fusion (UniProt P36894)
BMPRIa receptor-Fc fusion, sequence (P36894 24-152 limits assumed): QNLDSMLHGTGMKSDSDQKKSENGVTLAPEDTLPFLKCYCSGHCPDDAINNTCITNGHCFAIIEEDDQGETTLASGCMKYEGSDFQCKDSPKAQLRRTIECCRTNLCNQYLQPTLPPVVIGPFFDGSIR

ActRIIa receptor-Fc fusion, sequence (P27037 20-134 limits assumed): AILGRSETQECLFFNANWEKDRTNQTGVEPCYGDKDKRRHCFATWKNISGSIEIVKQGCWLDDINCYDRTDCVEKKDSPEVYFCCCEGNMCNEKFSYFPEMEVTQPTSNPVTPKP

| Substance | ActRIIa binding (relative to wild type = 1.0) (relative to wild type) [1] | BMPRII binding (relative to wild type = 1.0) (relative to wild type) [2] | BMPRIb binding (relative to wild type = 1.0) (relative to wild type) [3] | BMPRIa binding (relative to wild type = 1.0) (relative to wild type) [4] |
| --- | --- | --- | --- | --- |
| BMP-7 variant W55A (from UniProt P18075 293-431 at identity 0.99)) (ligand) | 0.09 | 0.03 |  |  |
| BMP-7 variant L115A (from UniProt P18075 293-431 at identity 0.99)) (ligand) | 0.01 | -0.01 |  | -0.02 |
| BMP-7 variant L21E (from UniProt P18075 293-431 at identity 0.99)) (ligand) |  | 0.07 |  |  |
| BMP-7 variant F117S (from UniProt P18075 293-431 at identity 0.99)) (ligand) |  | -0.04 | -0.08 |  |
| BMP-7 variant S77H (from UniProt P18075 293-431 at identity 0.99)) (ligand) |  | 0.08 |  |  |

Continued, values first:

| ActRIIa binding (relative to wild type = 1.0) (relative to wild type) [1] | BMPRII binding (relative to wild type = 1.0) (relative to wild type) [2] | BMPRIb binding (relative to wild type = 1.0) (relative to wild type) [3] | BMPRIa binding (relative to wild type = 1.0) (relative to wild type) [4] | Substance |
| --- | --- | --- | --- | --- |
|  | -0.13 | -0.51 |  | BMP-7 variant R48E (from UniProt P18075 293-431 at identity 0.99)) (ligand) |
|  | 0.09 |  |  | BMP-7 variant F93A (from UniProt P18075 293-431 at identity 0.99)) (ligand) |
| 0.07 | 0.01 |  | 0.03 | BMP-7 variant W52P (from UniProt P18075 293-431 at identity 0.99)) (ligand) |
